Measurements published in PMC6327041 (2019).
Where no end group is shown, it is not given here. [ ]: non-standard residue; d: D form. pT = C[C@@H](OP(=O)(O)O)[C@H](N)C(=O)O

B1: GST-PHD1 (S287-K347) of KDM5A (domain or fragment)
chain: SVNFVDLYVCMFCGRGNNEDKLLLCDGCDDSYHTFCLIPPLPDVPKGDWRCPKCVAEECSK

How the values were obtained:
[1] = target: B1; experiment: FP; H3R8me2s (symmetric dimethyl)
[2] = target: B1; experiment: FP; H3R8me2a (asymmetric dimethyl)
[3] = target: B1; experiment: FP; H3R2me2s (symmetric dimethyl)
[4] = target: B1; experiment: FP; H3R2me2a (asymmetric dimethyl)
[5] = target: B1; experiment: FP
[6] = target: H3 10mer peptide mutated at R2 (UniProt P68431 2-11); experiment: FP; H3R2A
[7] = target: B1; experiment: FP; H3T6ph

Binder: ARTKQTARKS (also: methylated Arg8, degree of methylation not given here) [H3 10mer peptide methylated at R8]
- Kd [1]: 2010 nM
- Kd [2]: 1840 nM

Binder: ARTKQTARKS (also: methylated Arg2, degree of methylation not given here) [H3 10mer peptide methylated at R2]
- Kd [3]: 5310 nM
- Kd [4]: 5410 nM

Binder: ARTKQTARKS (acetyl-lysine at 9 (K9ac)) [H3K9ac 10mer peptide]
- Kd [5]: 1010 nM

Binder: ARTKQTARKS [unmodified H3 10mer effector peptide (H3 Ala1-Ser10)]
- Kd [5]: 996 nM

Binder: B1
- Kd [6]: 205000 nM

Binder: ARTKQTARKS (trimethyl-lysine at 9 (K9me3)) [H3K9me3 10mer peptide]
- Kd [5]: 740 nM

Binder: ARTKQ[pT]ARKS [H3 10mer peptide phosphorylated at T6]
- Kd [7]: 72000 nM
